Measurements published in US9868960B2, “Placental like alkaline phosphatase (PLAP) promoter mediated cell targeting” (priority 2013, dated 2018).
“Also recorded” adds a separate entry of the source.

What was measured:
[1] = system: HPV-16 enhancer in SiHa cells; assay: Chip assay of H3K9me2 and H3K27me3 at the targeted enhancer; format: cell-based; details: harvested after 5 days
Protocol: FIG. 13: Elucidating the mechanism of transcriptional gene silencing: (A) SiHa cells untreated or treated with TSA were transfected with NFκB+PLAP enhancer-promoter chimera expressing test & scrambled shRNA and harvested after 5 days. Chip was performed with antibodies against H3K9me2 and H3K27me3; antibodies against RNA polymerase and mouse IgG were respectively used as positive and negative controls for pull down. Input and immuno-precipitated DNA were measured by PCR with requisite primers and the enrichment at enhancer region was further quantified by qPCR.
Using chip assay, we assessed the level of histone H3K9 dimethylation (H3K9me2) and H3K27 trimethylation (H3K27me3), two repressive epigenetic marks shown to increase as a result of TGS.

[2] = system: PLAP positive cell lines (HeLa, SiHa, CaSki, Caco-2); assay: Dual luciferase reporter assay of promoter/enhancer-promoter constructs in PLAP positive cell lines; format: cell-based, human; details: for transcriptional activity (relative luciferase activity over pGL3-Basic): PLAP positive cell lines, 48 hours post transfection, normalised by Renilla; for tissue specificity of luciferase expression: PLAP positive versus PLAP negative cell lines; for tissue specificity of luciferase expression / trend of construct activity (strength): FIG. 6; for trend of construct activity (strength): luciferase reporter constructs
Protocol: (§1) All transfections were performed using Lipofectamine™ 2000 transfection reagent according to manufacturer's instruction (Invitrogen). Briefly, (1×10^6/well) cells were cultured in 6-well plates overnight. The luciferase reporter vectors (PLAP-luc, NFκB+PLAP−luc & pG13 Basic; 1 μg well^−1) were co-transfected in 20:1 ratio with Renilla luciferase expression vector (pRL-TK), an internal control for normalisation of the transcriptional activity of the reporter vectors. Forty-eight hours post transfection, the cells were lysed and luciferase activities were assayed using Dual Luciferase Assay reagents (Promega) according to manufacturer's protocol. All transfections were performed in triplicate and all experiments were repeated at least twice.
(§2) The region of PLAP promoter spanning from −170 to +24 containing invariant TATA boxes (nucleotides −31 to −25) & Sp1 binding sites (nucleotides −84 to −76) cloned in promoter less luciferase expression vector PGL3 basic was transfected in battery of PLAP positive cell cervical cell lines (HeLa, SiHa and CaSki) and appropriate PLAP negative cell lines HepG2 (Hepatoma) & CHO. Promoter activity was assayed in these in vitro model systems by dual luciferase assay.
(§3) To develop an optimal enhancer-promoter system for improving the transcriptional activity of PLAP promoter a fusion construct comprising of PLAP promoter & tetramer of NFKB binding sites cloned in PGL3 basic was evaluated by dual luciferase assay in the above mentioned cell lines. Furthermore, we compared the transcriptional activity of PLAP promoter/enhancer systems with strong SV40 virus promoter (PGL3 C).

[3] = system: PLAP negative cell lines HepG2 (Hepatoma) & CHO; assay: Dual luciferase reporter assay of promoter/enhancer-promoter constructs in PLAP negative cell lines; format: cell-based; details: PLAP negative/control cell lines HepG2 & CHO, 48 hours post transfection
Protocol: as §1, §2, §3

[4] = listed as NFκB+PLAP promoter enhancer systems

Row | Molecule | levels of H3K9me2 and H3K27me3 at the targeted enhancer [1] | transcriptional activity (relative luciferase activity over pGL3-Basic) [2] | tissue specificity of luciferase expression [2] | trend of construct activity (strength) [2] | transcriptional activity (relative luciferase activity over pGL3-Basic) [3] | transcriptional activity (relative luciferase activity over pGL3-Basic) [2, 4] | transcriptional activity (relative luciferase activity over pGL3-Basic) [3, 4]
1 | CC(/C=C/C(=O)NO)=C\[C@@H](C)C(=O)c1ccc(N(C)C)cc1 [trichostatin] | reduced this enrichment | – | – | – | – | – | –
2 | PLAP promoter: human PLAP promoter region −170 to +24 cloned in promoter less luciferase expression vector pGL3 Basic (nucleic acid, listed as Homo sapiens, in pGL3 Basic luciferase vector; DNASequence (1)..(196) Unique PLAP promoter Sequence, human PLAP promoter region −170 to +24 cloned in promoter less luciferase expression vector pGL3 Basic) DNA: AAGCTGCCTTTCTCAGGACCCCAGCCCCAGCCCAGCCCAGCCACACCCTGCGACTCTCTTCAGCCAGTGTGGCTTCAGGTCAAGAGGCTGGGCGGGGTCAAGGTGGTAACAAGGGGAGGGGCCAGGACACAGTTTTCCCTGATTTAAACCCAGGCAGCCTGGAGTGCAGCTCATACTCCATACCTGGGATTTCCGC | – | of optimum level only in carcinoma cell lines expressing PLAP; also recorded: selective transcriptional activity in all the PLAP positive cell lines | tissue selective expression | NFκB−PLAP Pr>SV40 Pr>PLAP Pr | little or no activity in the control cell lines; also recorded: not in PLAP negative cell line | – | –
3 | NFKB−PLAP enhancer-promoter system: tetramer of NFκB DNA binding sites (GGGAATTTCC) upstream of PLAP promoter −170 to +24 in pGL3 Basic luciferase vector (nucleic acid, in pGL3 Basic luciferase vector; Enhancer (NFKB)-Promoter (PLAP) Sequence.) DNA: GGGAATTTCCGGGAATTTCCGGGAATTTCCGGGAATTTCCAAGCTGCCTTTCTCAGGACCCCAGCCCCAGCCCAGCCCAGCCACACCCTGCGACTCTCTTCAGCCAGTGTGGCTTCAGGTCAAGAGGCTGGGCGGGGTCAAGGTGGTAACAAGGGGAGGGGCCAGGACACAGTTTTCCCTGATTTAAACCCAGGCAGCCTGGAGTGCAGCTCATACTCCATACCTGGGATTTCCGC | – | selective transcriptional activity in all the PLAP positive cell lines; also recorded: highly comparable to that of strong SV40 virus promoter | tissue selective expression | NFκB−PLAP Pr>SV40 Pr>PLAP Pr | not in PLAP negative cell line | of optimum level only in carcinoma cell lines expressing PLAP | little or no activity in the control cell lines
